# Target: α-conotoxin ImII (Conus imperialis)
# Test: cryo-EM structure
substance,measurement,value
α-conotoxin ImII (peptide),stoichiometry N,2
